Test results reported in paper PMC7168936.

Substrate: N[C@@H](COP(=O)(O)O)C(=O)O
Assay: purified protein, by the assay type
Conditions: other: substrates of PSAT1, optimized conditions; pH 8.5

B1: PSAT1 (Homo sapiens) (protein)
chain: MDAPRQVVNFGPGPAKLPHSVLLEIQKELLDYKGVGISVLEMSHRSSDFAKIINNTENLVRELLAVPDNYKVIFLQGGGCGQFSAVPLNLIGLKAGRCADYVVTGAWSAKAAEEAKKFGTINIVHPKLGSYTKIPDPSTWNLNPDASYVYYCANETVHGVEFDFIPDVKGAVLVCDMSSNFLSKPVDVSKFGVIFAGAQKNVGSAGVTVVIVRDDLLGFALRECPSVLEYKVQAGNSSLYNTPPCFSIYVMGLVLEWIKNNGGAAAMEKLSSIKSQTIYEIIDNSQGFYVCPVEPQNRSKMNIPFRIGNAKGDDALEKRFLDKALELNMLSLKGHRSVGGIRASLYNAVTIEDVQKLAAFMKKFLEMHQL
- Km: 25.1 ± 5.3 μM μM
